Test results from publication PMC3843637.

Target: MAN1 fragment from amino acids 658 to 911 (MAN1C) (human) (UniProt Q9Y2U8)
Experiment: SEC + NMR titration

Chain of MAN1 fragment from amino acids 658 to 911 (MAN1C) (human) (Q9Y2U8 658-911): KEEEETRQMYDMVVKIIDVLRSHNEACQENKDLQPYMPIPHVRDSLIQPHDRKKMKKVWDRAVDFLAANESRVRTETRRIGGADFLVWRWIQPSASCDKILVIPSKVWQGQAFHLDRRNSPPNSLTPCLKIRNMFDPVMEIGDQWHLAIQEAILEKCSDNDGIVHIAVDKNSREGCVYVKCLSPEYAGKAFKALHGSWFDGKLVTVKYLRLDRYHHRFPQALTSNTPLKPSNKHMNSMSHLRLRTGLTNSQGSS

“PPM1A (from UniProt P35813 1-382) (enzyme)” was tested, and the Kd was 10 to 500 µM.
